The results in this text go back to patent US20220112244A1 (DOMPE FARMACEUTICI S P A, published 2022).

For the experiment, the target named is IL-17A (agonist in the IL-17RA/IL17RC dimerization assay) (UniProt Q16552 24-155). The experiment is described as follows: cell-based or functional assay.
Sequence of IL-17A (agonist in the IL-17RA/IL17RC dimerization assay) (Q16552 24-155 limits assumed): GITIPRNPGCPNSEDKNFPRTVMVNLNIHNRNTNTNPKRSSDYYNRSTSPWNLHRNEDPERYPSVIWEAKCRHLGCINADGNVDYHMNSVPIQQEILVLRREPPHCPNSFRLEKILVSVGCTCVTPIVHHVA
As to Ac-IHVTVPADLWDWINK-NH2 [peptide of SEQ ID NO: 183], the “IC50 in IL-17RA/IL7RC dimerization assay” value is less than 10 µM.

As to Ac-IHYTIPADLWDWINK-NH2 [peptide of SEQ ID NO: 172], the “IC50 in IL-17RA/IL7RC dimerization assay” value was less than 10 µM.

Ac-IHVSIPADLWDWINK-NH2 [peptide of SEQ ID NO: 175]: the “IC50 in IL-17RA/IL7RC dimerization assay” value is less than 10 µM.

For the molecule Ac-IHVTIPADLWDWIEK-NH2 [peptide of SEQ ID NO: 11], the “IC50 in IL-17RA/IL7RC dimerization assay” value is less than 0.4 µM.

Regarding Ac-IHVNIPADLWDWINK-NH2 [peptide of SEQ ID NO: 177], the “IC50 in IL-17RA/IL7RC dimerization assay” value is less than 10 µM.

Take Ac-IEVTIPADLWDWINK-NH2 [peptide of SEQ ID NO: 164]: the “IC50 in IL-17RA/IL7RC dimerization assay” value was less than 10 µM.

Turning to Ac-IHVTIPIDLWDWINK-NH2 [peptide of SEQ ID NO: 196], the “IC50 in IL-17RA/IL7RC dimerization assay” value was less than 10 µM.

Ac-IHVTLPADLWDWINK-NH2 [peptide of SEQ ID NO: 181]: the “IC50 in IL-17RA/IL7RC dimerization assay” value is less than 10 µM.

For Ac-IHVTIIADLWDWINK-NH2 [peptide of SEQ ID NO: 190], the “IC50 in IL-17RA/IL7RC dimerization assay” value was less than 10 µM.

Ac-IHVTIPADPWDWINK-NH2 [peptide of SEQ ID NO: 203]: the “IC50 in IL-17RA/IL7RC dimerization assay” value is less than 10 µM.

On to Ac-IHVTIGADLWDWINK-NH2 [peptide of SEQ ID NO: 187], for which the “IC50 in IL-17RA/IL7RC dimerization assay” value is less than 10 µM.

Consider Ac-IHVTIVADLWDWINK-NH2 [peptide of SEQ ID NO: 189], for which the “IC50 in IL-17RA/IL7RC dimerization assay” value was less than 10 µM.

As for Ac-IHVTINADLWDWINK-NH2 [peptide of SEQ ID NO: 191], the “IC50 in IL-17RA/IL7RC dimerization assay” value is less than 10 µM.

With Ac-IHWTIPADLWDWINK-NH2 [peptide of SEQ ID NO: 173], the “IC50 in IL-17RA/IL7RC dimerization assay” value was less than 10 µM.

Turning to Ac-IHVTIPADLFDWINK-NH2 [peptide of SEQ ID NO: 207], the “IC50 in IL-17RA/IL7RC dimerization assay” value was less than 10 µM.

As for Ac-IHVTIPADAWDWINK-NH2 [peptide of SEQ ID NO: 201], the “IC50 in IL-17RA/IL7RC dimerization assay” value is less than 10 µM.

Take Ac-IHLTIPADLWDWINK-NH2 [peptide of SEQ ID NO: 169]: the “IC50 in IL-17RA/IL7RC dimerization assay” value is less than 10 µM.

With Ac-IHVTIPADIWDWINK-NH2 [peptide of SEQ ID NO: 205], the “IC50 in IL-17RA/IL7RC dimerization assay” value is less than 10 µM.

With Ac-IHVTIPADVWDWINK-NH2 [peptide of SEQ ID NO: 204], the “IC50 in IL-17RA/IL7RC dimerization assay” value is less than 10 µM.

Take Ac-IHVTGPADLWDWINK-NH2 [peptide of SEQ ID NO: 180]: the “IC50 in IL-17RA/IL7RC dimerization assay” value was less than 10 µM.

For Ac-IHVTAPADLWDWINK-NH2 [peptide of SEQ ID NO: 179], the “IC50 in IL-17RA/IL7RC dimerization assay” value is less than 10 µM.

Regarding Ac-IHVTIPNDLWDWINK-NH2 [peptide of SEQ ID NO: 197], the “IC50 in IL-17RA/IL7RC dimerization assay” value was less than 10 µM.

Regarding Ac-IHVTIPADLHDWINK-NH2 [peptide of SEQ ID NO: 206], the “IC50 in IL-17RA/IL7RC dimerization assay” value was less than 10 µM.

Ac-IHVTILADLWDWINK-NH2 [peptide of SEQ ID NO: 188]: the “IC50 in IL-17RA/IL7RC dimerization assay” value is less than 10 µM.

For the molecule Ac-IHVYIPADLWDWINK-NH2 [peptide of SEQ ID NO: 176], the “IC50 in IL-17RA/IL7RC dimerization assay” value is less than 10 µM.

Consider Ac-IHVQIPADLWDWINK-NH2 [peptide of SEQ ID NO: 178], for which the “IC50 in IL-17RA/IL7RC dimerization assay” value is less than 10 µM.

Take Ac-IHFTIPADLWDWINK-NH2 [peptide of SEQ ID NO: 174]: the “IC50 in IL-17RA/IL7RC dimerization assay” value was less than 10 µM.

Turning to Ac-IHPTIPADLWDWINK-NH2 [peptide of SEQ ID NO: 170], the “IC50 in IL-17RA/IL7RC dimerization assay” value is less than 10 µM.

For Ac-IHVTIPVDLWDWINK-NH2 [peptide of SEQ ID NO: 195], the “IC50 in IL-17RA/IL7RC dimerization assay” value is less than 10 µM.

Regarding Ac-IHGTIPADLWDWINK-NH2 [peptide of SEQ ID NO: 168], the “IC50 in IL-17RA/IL7RC dimerization assay” value is less than 10 µM.

In the case of Ac-IQVTIPADLWDWINK-NH2 [peptide of SEQ ID NO: 165], the “IC50 in IL-17RA/IL7RC dimerization assay” value was less than 10 µM.

Turning to Ac-IHVTIPAYLWDWINK-NH2 [peptide of SEQ ID NO: 200], the “IC50 in IL-17RA/IL7RC dimerization assay” value is less than 10 µM.

On to Ac-IHVTIPAQLWDWINK-NH2 [peptide of SEQ ID NO: 199], for which the “IC50 in IL-17RA/IL7RC dimerization assay” value was less than 10 µM.

As to Ac-IHVTYPADLWDWINK-NH2 [peptide of SEQ ID NO: 185], the “IC50 in IL-17RA/IL7RC dimerization assay” value was less than 10 µM.

Take Ac-IHVTIPPDLWDWINK-NH2 [peptide of SEQ ID NO: 194]: the “IC50 in IL-17RA/IL7RC dimerization assay” value was less than 10 µM.

Take Ac-IHVTIPLDLWDWINK-NH2 [peptide of SEQ ID NO: 193]: the “IC50 in IL-17RA/IL7RC dimerization assay” value is less than 10 µM.

As for Ac-IHVTIPADGWDWINK-NH2 [peptide of SEQ ID NO: 202], the “IC50 in IL-17RA/IL7RC dimerization assay” value is less than 10 µM.

Turning to Ac-IHATIPADLWDWINK-NH2 [peptide of SEQ ID NO: 167], the “IC50 in IL-17RA/IL7RC dimerization assay” value was less than 10 µM.

For the molecule Ac-IHVTIPQDLWDWINK-NH2 [peptide of SEQ ID NO: 198], the “IC50 in IL-17RA/IL7RC dimerization assay” value is less than 10 µM.

As to Ac-IHITIPADLWDWINK-NH2 [peptide of SEQ ID NO: 171], the “IC50 in IL-17RA/IL7RC dimerization assay” value was less than 10 µM.

For Ac-IYVTIPADLWDWINK-NH2 [peptide of SEQ ID NO: 166], the “IC50 in IL-17RA/IL7RC dimerization assay” value was less than 10 µM.

Turning to Ac-IHVTFPADLWDWINK-NH2 [peptide of SEQ ID NO: 184], the “IC50 in IL-17RA/IL7RC dimerization assay” value was less than 10 µM.
